The assay concerns the target AlyA3, PL17 alginate lyase from Zobellia galactanivorans DsijT (recombinant, His-tagged, without signal peptide) (Zobellia galactanivorans DsijT). Kind of assay: SEC. Background: SEC sorts molecules by how far they enter the pores of the column.

Take “AlyA3, PL17 alginate lyase from Zobellia galactanivorans DsijT (recombinant, His-tagged, without signal peptide) (enzyme)”: the stoichiometry N (usually a count of units in the complex or per binding partner) is 2.

For the origin of these results see PMC8600288.
